Among the data in paper PMC5303882, “Structure of the homodimeric androgen receptor ligand-binding domain” (Nature Communications, 2017) are Kd values, retold here.

The target of the experiment is T1, Recombinant human androgen receptor ligand-binding domain (AR-LBD, residues 662-919), DHT-bound (human, UniProt P10275 662-919).
T1 construct: also called AR/NR3C4 LBD; liganded AR-LBD; source: recombinant, expressed as a fusion protein with thioredoxin, purified to homogeneity
Nature of the experiment: SPR; BIAcore T200, 25 °C; DHT-bound AR-LBD amine-coupled to a CM5 chip at about 6,800 RU, UBA3 peptide as analyte; 50 mM HEPES pH 7.2, 50 mM Li2SO4, 5% glycerol, 1 mM DTT, 5 mM DHT; 1:1 Langmuir model; triplicate. Particulars: both partners purified. Background: Surface plasmon resonance follows binding to a sensor surface in real time, without labels.

B1: Synthetic UBA3 peptide S59-V72 (LxxLL motif) (peptide)
peptide: STESLQFLLDTCKV
notes: also called UBA3-derived peptide; UBA3 59S-72V peptide; source: synthetic peptide, custom-synthesized at Pepmic
Broadly, the Kd is the free concentration of one partner at which half of the binding sites on the other are occupied at equilibrium, for simple one-to-one binding. As for B1, the Kd worked out at 30.6 ± 0.7 nM.
